System: MS2 coat protein
Experiment: apparent KD of MS2 coat protein; designed switch direction (-1 OFF switch, 1 ON switch): 1; higher = weaker reporter binding
Summary of the method: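 For each design, the apparent KD is the median over clusters of curves fitted to normalised cluster fluorescence. Clusters held RNA switches with common flanks, transcribed on Illumina chips by stalled E. coli RNA polymerase. These were titrated with SNAP-549-labelled MS2 coat protein, doubling from 0.7 or 1.5 nM to 3 µM, without input, with 200 uM small-molecule ligand, or with an oligonucleotide input.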

[1] = input ligand: microRNA oligo, concentration not stated
[2] = Eterna round: R95, input ligand: FMN 200 uM
[3] = Eterna round: R95, input ligand: microRNA oligo, concentration not stated
[4] = Eterna round: R95, input ligand: none

Sequence: CCGGGUAAUGGAGGAUAUGGAGCCUUAUUGGCUCCAGAAGGUCAAUAACAUGAGGAUCACCCAUGUCCGGCGGUCAAUAGACCG [Eli NG1ss - 68] (Eterna round: R96, puzzle: Same State NG 1)
- apparent KD of MS2 coat protein (input ligand: FMN 200 uM): 87.5 nM
- apparent KD of MS2 coat protein [1]: 202 nM
- apparent KD of MS2 coat protein (input ligand: none): 775 nM

Sequence: AUGAAGAACUAAGGAUAUUGAAUACAUAUGUUUAACAUGAGGAUCACCCAUGUGGGUUGCGGUAUCGAGAAGGUAGAAUAAUAG [Mat - same State NG 2 - JL mod - D92] (Eterna round: R96, puzzle: Same State NG 2)
- apparent KD of MS2 coat protein (input ligand: FMN 200 uM): 95.7 nM
- apparent KD of MS2 coat protein [1]: 70.3 nM
- apparent KD of MS2 coat protein (input ligand: none): 123 nM

Sequence: CUACGCGCCGCAGGAUAUGCCGACCCGUGUUGAGCAGAAGGGCGAAACAUGAGGAUCACCCAUGUUGAAAGAGCGCAAAAUUAA [Erteerte] (Eterna round: R96, puzzle: Same State NG 1)
- apparent KD of MS2 coat protein (input ligand: FMN 200 uM): 23.5 nM
- apparent KD of MS2 coat protein [1]: 16.4 nM
- apparent KD of MS2 coat protein (input ligand: none): 30.1 nM

Sequence: GGUGCAAUAAACGCCUACAUGAGGAUCACCCAUGUAUGUAGGCAGGAUAUCGUAUGCAAAGCAUACGAGAAGGGCUGUAGUACC [Mat - Same State NG 3 - JL Mod - D42] (Eterna round: R96, puzzle: Same State NG 3)
- apparent KD of MS2 coat protein (input ligand: FMN 200 uM): 53.7 nM
- apparent KD of MS2 coat protein [1]: 116 nM
- apparent KD of MS2 coat protein (input ligand: none): 118 nM

Sequence: ACAUGAGACGGAGGAUAUUUUGUACCUACAUGUGACAUGAGGAUCACCCAUGUGGUAAGUAUGAGAAAGAAGGCCGAGAUAUGU [Equivalence 19 - Jieux - Same State NG 2] (Eterna round: R96, puzzle: Same State NG 2)
- apparent KD of MS2 coat protein (input ligand: FMN 200 uM): 14.2 nM
- apparent KD of MS2 coat protein [1]: 17.7 nM
- apparent KD of MS2 coat protein (input ligand: none): 29.6 nM

Sequence: AGGCUCAGAGCAGGAUAUAUGUAAUAACAUGAGGAUCACCCAUGUGUCGAGCUUCGGCUCGACACAUAGAAGGGCUCUGAGCCA [SSNG2/2-B1] (Eterna round: R96, puzzle: Same State NG 2)
- apparent KD of MS2 coat protein (input ligand: FMN 200 uM): 16.9 nM
- apparent KD of MS2 coat protein [1]: 28.8 nM
- apparent KD of MS2 coat protein (input ligand: none): 45.9 nM

Sequence: GUUAAACAUGAGGAUCACCCAUGUCAAUGUAGUCGAGGAUAUGGGCAGCUAUGAGGCGUACUAGAAGGCGAAAAGU [Mat - Same State 1 - Mod of JL - D13] (puzzle: Same State 1)
- apparent KD of MS2 coat protein [2]: 117 nM
- apparent KD of MS2 coat protein [3]: 260 nM
- apparent KD of MS2 coat protein [4]: 535 nM

Sequence: AUAAGUUCGAUGCUCGUCUCUCCGUACAAACAUGAGGAUCACCCAUGUGAUCGAGAAGUAGCCCGAUCAGUAUGGCC [Soainge] (puzzle: Sensor for hsa-mir-208a)
- apparent KD of MS2 coat protein [2]: 30.2 nM
- apparent KD of MS2 coat protein [3]: 27 nM
- apparent KD of MS2 coat protein [4]: 35.3 nM

Sequence: AGUCCAGCCUAAGCUGGACAAAAGCAUGUACAUGAGGAUCACCCAUGUUCAUGUACAAGCUUUUUGCAAGUCAAAAU [Mat - hsa-mir-208a - Mod of JL - 79] (puzzle: Sensor for hsa-mir-208a)
- apparent KD of MS2 coat protein [2]: 1050 nM
- apparent KD of MS2 coat protein [3]: 19.3 nM
- apparent KD of MS2 coat protein [4]: 1050 nM

Sequence: UGCGGAUAACAGUAGGAUAUGGUCAACGCCACAUGAGGAUCACCCAUGUCGUACCGGCACCUGGACUAGAAGGACUGCCUCCCGC [Esleberi] (puzzle: Same State 2)
- apparent KD of MS2 coat protein [2]: 11.6 nM
- apparent KD of MS2 coat protein [3]: 26.4 nM
- apparent KD of MS2 coat protein [4]: 38 nM

Sequence: UACAAUCUAUCUGAGGAUAUCAUGAAAAAAACAUGAGGAUCACCCAUGUGCAGGAAAACUGCAUAUGAGAAGGCAGAUAGAUUGC [salish99_SS2_r3_008] (Eterna round: R96, puzzle: Same State 2)
- apparent KD of MS2 coat protein [1]: 458 nM

Sequence: AGCUAAAACGAAGGAUAUACAAACAUGAGGAUCACCCAUGUAUACAUGGUUUGUUGUGACCACAUGUAGAAGGUCGUACUAACA [SameState NG2 #18] (Eterna round: R96, puzzle: Same State NG 2)
- apparent KD of MS2 coat protein (input ligand: FMN 200 uM): 178 nM
- apparent KD of MS2 coat protein [1]: 405 nM
- apparent KD of MS2 coat protein (input ligand: none): 358 nM

Sequence: GAGAGAGGAAGCGAGGAUAUCGUGUUGAGUACAUGAGGAUCACCCAUGUUGUAGGUAGAGGUAGGCGAGAAGGCGCAGGAGAGGG [JR_SS2_Sub099] (puzzle: Same State 2)
- apparent KD of MS2 coat protein [2]: 43 nM
- apparent KD of MS2 coat protein [3]: 43.2 nM
- apparent KD of MS2 coat protein [4]: 51 nM

Sequence: GCUCGAUGAGCUGUUUACAUGAGGAUCACCCAUGUAGAUGCGGAGGAUAUCUACGUGCUUUAUGUAGAGAAGGCCGUAUCGAGC [SameState NG3 #81] (Eterna round: R96, puzzle: Same State NG 3)
- apparent KD of MS2 coat protein (input ligand: FMN 200 uM): 14.2 nM
- apparent KD of MS2 coat protein [1]: 22.2 nM
- apparent KD of MS2 coat protein (input ligand: none): 28.4 nM

Sequence: GUGGUCAGACAUGAGGAUCACCCAUGUGGAAUAAAUAACGGUGAGGAUAUCGAAUAUAGGAUAUACGAGAAGGCAUGAUUGGUG (Eterna round: R96, puzzle: Same State NG 3)
- apparent KD of MS2 coat protein (input ligand: FMN 200 uM): 165 nM
- apparent KD of MS2 coat protein [1]: 93.3 nM
- apparent KD of MS2 coat protein (input ligand: none): 124 nM

Sequence: AAGAGACAUGAGGAUCACCCAUGUUUGAAUAAUAUAGGAUAUAUACCACAUGUAAAAGAAAUAGAAGGAUAAGAAA [Default title] (puzzle: Same State 1)
- apparent KD of MS2 coat protein [2]: 77 nM
- apparent KD of MS2 coat protein [3]: 114 nM
- apparent KD of MS2 coat protein [4]: 534 nM

Sequence: AACCUACAUGAGGAUCACCCAUGUAUCUGAGGCACAGGAUAUCGACAGGCAAGACACCUGCGAGAAGGGUGACCUC [Same State 1 - Mod of Vinnie Diatater v.2] (puzzle: Same State 1)
- apparent KD of MS2 coat protein [3]: 53.6 nM

Sequence: CCAGCAUCACGAGGAUAUGGAGGUUCCCGAAAGACAUGAGGAUCACCCAUGUAUGUACGCCGCCUUCAGAAGGUGUAUAAGCGA [Eternabot solution 31] (Eterna round: R96, puzzle: Same State NG 2)
- apparent KD of MS2 coat protein (input ligand: FMN 200 uM): 65.7 nM
- apparent KD of MS2 coat protein [1]: 38.2 nM
- apparent KD of MS2 coat protein (input ligand: none): 58.7 nM

Sequence: UAACAGUACAAUUUAGAUCUACAUGAGGAUCACCCAUGUACUGAGGAUAUCAGCUCGAUUAGAGCUGAGAAGGCAGAAGAACUA [SSNG3/11-A2] (Eterna round: R96, puzzle: Same State NG 3)
- apparent KD of MS2 coat protein (input ligand: FMN 200 uM): 48.5 nM
- apparent KD of MS2 coat protein [1]: 173 nM
- apparent KD of MS2 coat protein (input ligand: none): 344 nM

Sequence: UUAUAACAUGAGGAUCACCCAUGUCAACAAAGUCGAGGAUAUGGGCAAGAAUUGAGAGAACCAGAAGGCGAAUAUU [Mat - Same State 1 - Mod of UCT - D31] (puzzle: Same State 1)
- apparent KD of MS2 coat protein [2]: 78.4 nM
- apparent KD of MS2 coat protein [3]: 131 nM
- apparent KD of MS2 coat protein [4]: 148 nM

Sequence: AUAAAACAUGAGGAUCACCCAUGUCAACAAAGUUGAGGAUAUGGGCAAAUAAAAUAAGAACCAGAAGGCGAAUAAU [salish99_ss1_r3_033] (puzzle: Same State 1)
- apparent KD of MS2 coat protein [2]: 429 nM
- apparent KD of MS2 coat protein [3]: 193 nM
- apparent KD of MS2 coat protein [4]: 546 nM

Sequence: AGUCCAGCCUGAGCUGGACAAAGACAUGUACAUGAGGAUCACCCAUGUCAUGUACAAGUUUUUUGCUCGUCUUAUAA (puzzle: Sensor for hsa-mir-208a)
- apparent KD of MS2 coat protein [2]: 36.7 nM
- apparent KD of MS2 coat protein [3]: 12.5 nM
- apparent KD of MS2 coat protein [4]: 44.1 nM

Sequence: GUGGCCCAGGCACAGGAUAUGUUUCUCGUAACAUGAGGAUCACCCAUGUGCCUAUGAGAUUUAAUGCAGAAGGGUGCACGCCACU [Mat - Same State 2 - Mod of UCT - D79] (puzzle: Same State 2)
- apparent KD of MS2 coat protein [2]: 24.1 nM
- apparent KD of MS2 coat protein [3]: 95.8 nM
- apparent KD of MS2 coat protein [4]: 184 nM

Sequence: CCCAGGCAUGGAGGAUAUGGGAACAUGAGGAUCACCCAUGUUAACUCCGUAGGCGGCUUAAGGCACCAGAAGGCUACGGCUGGU [Eternabot solution 15] (Eterna round: R96, puzzle: Same State NG 2)
- apparent KD of MS2 coat protein (input ligand: FMN 200 uM): 112 nM
- apparent KD of MS2 coat protein [1]: 67.8 nM
- apparent KD of MS2 coat protein (input ligand: none): 83 nM

Sequence: AUUAUACAUGAGGAUCACCCAUGUCAACGUAGUCGAGGAUAUGGGCAGCCGUGAGGCGUACUAGAAGGCGAAGAGA [Mat - Same State 1 - Mod of JL - D8] (puzzle: Same State 1)
- apparent KD of MS2 coat protein [2]: 84.3 nM
- apparent KD of MS2 coat protein [3]: 235 nM
- apparent KD of MS2 coat protein [4]: 385 nM

Sequence: AUAAAACAUGAGGAUCACCCAUGUCAAAAGACAUGAGGAUAUGUGCAAAUAAAAUAAGAAACAGAAGGCAUGAAAA [salish99_ss1_r3_103] (puzzle: Same State 1)
- apparent KD of MS2 coat protein [2]: 98 nM
- apparent KD of MS2 coat protein [3]: 105 nM
- apparent KD of MS2 coat protein [4]: 222 nM

Sequence: GCUCGAUGAGCGGUUUACAUGAGGAUCACCCAUGUAAAUGGGCAGGAUAUUUACGUGCUUUGUGUAGAGAAGGGCCCAUCGAGC [SameState NG3 #75] (Eterna round: R96, puzzle: Same State NG 3)
- apparent KD of MS2 coat protein (input ligand: FMN 200 uM): 18.1 nM
- apparent KD of MS2 coat protein [1]: 47.4 nM
- apparent KD of MS2 coat protein (input ligand: none): 112 nM

Sequence: UUAAGCAGCGGGCAGGAUAUGUAUUAAAAUACAUGAGGAUCACCCAUGUGCAGGUGUAACACCUGACAGAAGGGCCAAUCGGUGC [Soteed - 9] (puzzle: Same State 2)
- apparent KD of MS2 coat protein [2]: 36.3 nM
- apparent KD of MS2 coat protein [3]: 197 nM
- apparent KD of MS2 coat protein [4]: 329 nM

Sequence: CUGAGCAAUCAAGGAUAUCACGUCGAUUAGACGUGAGAAGGUGAUCAUUACAUGAGGAUCACCCAUGUGUUACAUGGAGCUCAG [Brourd's SSNG1/1-A2 mod 3] (Eterna round: R96, puzzle: Same State NG 1)
- apparent KD of MS2 coat protein (input ligand: FMN 200 uM): 395 nM
- apparent KD of MS2 coat protein [1]: 54.9 nM
- apparent KD of MS2 coat protein (input ligand: none): 159 nM

Sequence: UUUCUACAUGAGGAUCACCCAUGUCAACAAAGUCGAGGAUAUGGGCAUAUUAUCUUAUUUCCAGAAGGCGAUUUCU [salish99_ss1_r3_092] (puzzle: Same State 1)
- apparent KD of MS2 coat protein [3]: 101 nM

Sequence: GGAGCCGGCACCGAGGAUAUUCAUAUUAAAACAUGAGGAUCACCCAUGUAGCUCGAAAGAGCUUGGGAGAAGGCGGAUCGGCUCG [Xeonanis - 29] (puzzle: Same State 2)
- apparent KD of MS2 coat protein [2]: 30.5 nM
- apparent KD of MS2 coat protein [3]: 1010 nM
- apparent KD of MS2 coat protein [4]: 827 nM

— the supplement of paper PMC9170038
